The numbers were not newly measured in paper PMC7225939, which cites them from elsewhere.

The target in one data set is PCNA (Homo sapiens) (UniProt P12004). As to the kind of experiment: ITC. In general terms: In ITC the heat of successive injections is recorded.
In a further data set the target is UHRF2 (Homo sapiens). Description: ITC.
A further data set deals with p68 (Homo sapiens). As to the kind of experiment: ITC.
The target of the next data set is p15PAF (Homo sapiens). Description: ITC.
Chain of p15PAF (Homo sapiens) (Q15004 50-77): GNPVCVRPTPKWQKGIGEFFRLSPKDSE
Another data set concerns the target p21 (Homo sapiens). As to the kind of experiment: ITC.
A further data set addresses FEN1 (Homo sapiens). Description: ITC.
A further data set concerns the target TRAIP (Homo sapiens). As to the kind of experiment: ITC.
The next data set concerns the target DVC1 (Homo sapiens). Description: ITC.
The target of the next data set is p12 (Homo sapiens). Description: ITC.
For another data set, the target named is DNMT1 (Homo sapiens). Description: ITC.
Chain of DNMT1 (Homo sapiens) (P26358 161-180): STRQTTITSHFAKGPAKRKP
Data set [1] addresses ZRANB3 (Homo sapiens). As to the kind of experiment: ITC.
Target sequence in this assay (Q5FWF4 511-532): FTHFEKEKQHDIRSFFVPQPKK
For the next data set, the target named is PARG (Homo sapiens). As to the kind of experiment: ITC.
Data set [2] concerns the target p15 (PAF15) (Homo sapiens) (UniProt Q15004). As to the kind of experiment: ITC.
Data set [3] addresses ZRANB3 (Homo sapiens). Description: ITC. This is another data set of the same source.
Target sequence in this assay (Q5FWF4 1058-1079): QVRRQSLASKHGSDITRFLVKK
A further data set deals with Cdt1 (Homo sapiens). As to the kind of experiment: FP.
The target in another data set is Cdt2 (Homo sapiens). As to the kind of experiment: FP.
In a further data set the target is RecQ5 (Homo sapiens). As to the kind of experiment: NMR.
Chain of RecQ5 (Homo sapiens) (O94762 952-980): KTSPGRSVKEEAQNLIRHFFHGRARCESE
The target in the next data set is pol ι (Homo sapiens). Description: SPR. (In SPR one partner is held on a chip, and binding of the other changes the refractive index at the surface.)
Another data set deals with pol η (Homo sapiens). Description: SPR.
Chain of pol η (Homo sapiens) (Q9Y253 other isoform, or with tags, fused parts or gaps): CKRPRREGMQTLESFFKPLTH

Like-named read-outs stand apart in the source and are kept apart here.

Chain of PCNA (P12004 whole entry): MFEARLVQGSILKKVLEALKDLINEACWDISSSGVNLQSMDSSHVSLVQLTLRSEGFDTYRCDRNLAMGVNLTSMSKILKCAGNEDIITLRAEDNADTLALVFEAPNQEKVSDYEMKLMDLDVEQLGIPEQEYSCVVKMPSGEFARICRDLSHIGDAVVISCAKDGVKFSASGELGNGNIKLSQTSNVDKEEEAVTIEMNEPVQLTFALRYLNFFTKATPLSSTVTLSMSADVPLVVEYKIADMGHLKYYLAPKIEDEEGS
Chain of PCNA (Homo sapiens) (P12004 whole entry): as above
Chain of p15PAF (from UniProt Q15004) (Q15004 whole entry): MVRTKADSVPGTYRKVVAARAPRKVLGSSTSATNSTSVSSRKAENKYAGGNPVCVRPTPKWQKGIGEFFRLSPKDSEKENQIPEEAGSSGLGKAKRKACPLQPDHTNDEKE
Chain of p15 (PAF15) (Homo sapiens) (Q15004 whole entry): as above
Chain of TRAIP (Homo sapiens) (Q9BWF2 447-469): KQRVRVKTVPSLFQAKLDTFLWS
Chain of p21 (Homo sapiens) (P38936 139-160): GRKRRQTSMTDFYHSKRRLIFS

One may read the Kd as a measure of binding affinity in units of concentration. With FEN1, in the data set with PCNA (Homo sapiens), the Kd is 59.9 µM.

In the case of p68 (DNA polymerase delta subunit), the Kd with PCNA (Homo sapiens) is 16 µM.

For p21, the Kd in the data set with PCNA (Homo sapiens) was 0.08 µM.

Consider ZRANB3, for which the Kd with PCNA (Homo sapiens) is 4.8 µM.

As to PCNA (from UniProt P12004), the Kd with UHRF2 (Homo sapiens) is 25.7 µM; with p68 (Homo sapiens) it was 16 µM; with p15PAF (Homo sapiens) it was 5.56 µM; with p21 (Homo sapiens), 0.08 µM; with FEN1 (Homo sapiens), 59.9 µM; with TRAIP (Homo sapiens), 30.7 µM. Also, the Kd is 15.6 µM with DVC1 (Homo sapiens); 38 µM in the data set with p12 (Homo sapiens); 1 µM with DNMT1 (Homo sapiens); 4.8 µM with ZRANB3 (Homo sapiens) [1]; 3.3 µM in the data set with PARG (Homo sapiens); 1.1 µM in data set [2]. Moreover, the Kd was 9.24 µM with ZRANB3 (Homo sapiens) [3]; 7.2 µM with Cdt1 (Homo sapiens); 0.057 µM with Cdt2 (Homo sapiens); 210 µM in the data set with RecQ5 (Homo sapiens); 0.39 µM with pol ι (Homo sapiens); 0.4 µM with pol η (Homo sapiens).

With p15PAF, the Kd with PCNA (Homo sapiens) was 5.56 µM.

Consider p15PAF (from UniProt Q15004), for which, in the data set with PCNA (Homo sapiens), the Kd is 1.1 µM.
